Experiments:
[1] = target: CD33 on human AML cells (Kasumi-1, HL-60, MOLM14) (human (endogenous in Kasumi-1, HL-60, MOLM14)) (UniProt P20138); assay: flow cytometry on cells; 50 ug CD117 or CD33 Db-FM injected i.v. into NSG mice engrafted with MOLM14-CD117^highGFP^+Luc^+ cells; femora collected after 1 and 6 h; MFI (APC anti-FITC) interpolated on an ex vivo titration of Db-FM on cells of a control mouse
[2] = target: CD33 on human AML cells (Kasumi-1, HL-60, MOLM14) (human (endogenous in Kasumi-1, HL-60, MOLM14)) (UniProt P20138); assay: flow cytometry on cells; MOLM14 GFP^-CD117^midCD33^+ cells stained with 10 nM of either Db-FM or both (10 nM each); fluorescence (MFI)

Chain of CD33 on human AML cells (Kasumi-1, HL-60, MOLM14) (human (endogenous in Kasumi-1, HL-60, MOLM14)) (P20138 18-364): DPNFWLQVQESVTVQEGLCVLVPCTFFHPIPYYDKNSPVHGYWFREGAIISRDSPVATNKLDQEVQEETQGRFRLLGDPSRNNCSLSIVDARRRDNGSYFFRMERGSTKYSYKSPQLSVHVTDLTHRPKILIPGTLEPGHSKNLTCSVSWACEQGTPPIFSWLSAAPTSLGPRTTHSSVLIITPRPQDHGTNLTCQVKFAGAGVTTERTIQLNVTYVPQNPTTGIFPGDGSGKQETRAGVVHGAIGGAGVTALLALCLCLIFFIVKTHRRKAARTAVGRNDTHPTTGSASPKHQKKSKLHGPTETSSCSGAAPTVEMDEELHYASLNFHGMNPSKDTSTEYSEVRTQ

Substance: CD33 Db-FM (fluorescein-maleimide-labelled anti-CD33 diabody, clone SGN-33)
- interpolated on-tumor Db-FM concentration 1 h after injection [1]: 0.99 nM
- interpolated on-tumor Db-FM concentration 6 h after injection [1]: 0.22 nM
- MFI [2]: 942
